# Assay results from patent US20220144922A1 (Adimab, published 2022).
# Where a chain is given by its changes, count along the chain named.
# B1: ADI-15616 (antibody, V domains shown)
# VH: QVQLVQSGGGLVKPGGSLRLSCAASGFTFSDHYMTWIRQAPGKGLEWVSYISSTSSFTNYADSVKGRFTISRDNAKKSLYLQMNSLRAEDTAVYYCARDRNWGYAYGSDYWGQGTLVTVSS
# VL: DIRLTQSPDTLSLSPGERATLSCRASQSVSSTYLAWYQQKPGQAPRLLIYGAFGRATGIPDRFSGSGSGTDFTLTISRLEPEDFAVYYCQLYGNSRTFGQGTKLEIK
# notes: IgG
# B2: ADI-15631 (antibody, V domains shown)
# VH: QVQLVESGGGLVQPGRSLRLSCAASGFTFDNYPMHWIRQAPGKGLEWVSGISWHSGSIGYADSVKGRFTISRDNAKNSLYLQMNSLRTEDTALYYCAKDAHYFDNSGHYYYGLDVWGQGTTVTVSS
# VL: EIVLTQSPATLSVSPGERATLSCRASQNIINNLAWYQQKPGQAPRLLISGASTRATGIPARFSGSGSGTEFTLTITSLQSEDFAVYYCQQYNNWPLTFGGGTKVDIK
# notes: IgG
# B3: ADI-15597 (antibody, V domains shown)
# VH: QVQLVQSGGGLVKPGGSLRLSCAGSGFTFSSYTLNWVRQAPGKGLEWVSSISSSSTYIYYADSVKGRFTISRDNAKNSLHLQMNSLRAEDTAVYYCARADYDRSVYHLNWFDPWGQGTLVTVSS
# VL: QSVLTQPPSVSGAPGQRVTISCTGSSSNIGAGYDVHWYQQLPGAAPKLLIYGNTNRPSGVPDRFSGSKSGTSASLAITGLQADDEADYYCQSYDSSLSGTWVFGGGTKLTVL
# notes: IgG
# B4: ADI-15615 (antibody, V domains shown)
# VH: B3 VH with Q1E, Q6E, S7T, F111L
# VL: B3 VL with S2P
# notes: IgG; also called Antibody Number 180
# B5: ADI-15595 (antibody, V domains shown)
# VH: EVQLVESGPTLVKPTQTLTLTCTFSGFSLTTIGVGVGWIRQPPGKALEFLGIVYWDDDKRYSPSLKSRLTITKDTSKNQVVLTMTTLAPEDTGTYYCTYARYSSALFGGYYFHSWGQGTLVTVSS
# VL: QSVLTQPPSVSVAPGQTAKITCGGNDIGSRSVHWYQQKPGQAPVLVVYDNSDRPSGIPERFSGSNSGDTATLTISRVEAGDEAVYYCQVWESSGDHPRIFGGGTKLTVL
# B6: ADI-15618 (antibody, V domains shown)
# VH: EVQLVETGGGLIQPGGSLRLSCVASGFSLRNYALGWLRQAPGKGLEWVSGGYYGDVYYTDSVKGRFAVSRDNSGDTVYLEMDNLRVEDTAVYYCARMETVTTDAGSGWDWYFEVWGRGTLVTVSS
# VL: ETTLTQSPATLSLSPGDWATLSCRASQSVGTYLAWYQHKPGQAPRLLIHDASNRASDIPSRFSGSGSGTDFTLTIRGLEPEDFAVYYCQQHRDWRPVTFGGGTKVEIK
# notes: IgG
# B7: ADI-15557 (antibody, V domains shown)
# VH: QVQLVQSGAEVKRPGSSVKVSCKASGGTFSSFAINWVRQAPGQGLEWMGGLIPIFGTPNNAQKFQGRVTITADESTSTAYMELSSLRSEDTAVYYCASLRYFDWQPGGSYWFDPWGQGTLVTVSS
# VL: QPGLTQPPSVSVAPGKTARIACGGDNIGTKGVHWYQQKPGQAPVLVIYYDSDRPSGIPERFSGSNSGNTATLTISGVEAGDEADYYCQVWDTIDDHKDGLFGGGTKLTVL
# notes: IgG
# B8: ADI-15559 (antibody, V domains shown)
# VH: QVQLVQSGAEVKKPGSSVKVSCKASGGSLSTYGIHWVRQAPGQGLEWVGGVMTVYGKTTYGQNFQGRVTIAVDRSTNTAYMELSSLTSDDTGTYYCATDSYYVWTGSYPPPFDLWGQGTLVTVSS
# VL: EIVLTQTPGTQSLSPGQSATLSCRASHSVGNDYLAWYQQKPGQSPRLLIHGAYRRDSGIPDRFIGSGSGTDFTLTIDSLEPDDCAVYYCQQYGSWPLTFGGGTKVDIK
# notes: IgG; also called Antibody Number 130
# B9: ADI-15558 (antibody, V domains shown)
# VH: QVQLVQSGGEVKKPGASVKVSCKASGYTFTTYGISWVRQAPGHGLEWLGWISPKNGNTKYAQKVQGRVTMTIDPTTSTAYMELRSLRSDDTAMYYCARDYIVAIVAALPHGMDVWGQGTLVTVSS
# VL: QSVLTQPPSLSVSPGQTASISCSGDQLGNKYVCWYQQKPGQSPVLVIYQDSRRPSGVPERFSGSNSGNTATLTVGGTQPMDEADYYCQAWDSSIRVFGGGTKVTVL
# notes: IgG
# B10: ADI-15625 (antibody, V domains shown)
# VH: EVQLVESGAEVRKPGASVQVSCKASGYTFTSYYMHWVRQAPGHGLEWMGMIYPSGGSTSYAQKFQGRVTMTRDTSTSTVYMELSSLRSEDAAVYYCARDRAGCSGGSCYYYGMDVWGQGTTVTVSS
# VL: NFMLTQPPSVSVSPGQTASITCSGNKLGDKYACWYQQKPGQSPVLVISQDSKRPSGIPERFSGSNSGNTATLTISGTQAMDEADYYCQAWDSRTVVFGGGTKLTVL
# notes: IgG; also called Antibody Number 190
# B11: ADI-15637 (antibody, V domains shown)
# VH: QVQLVQSGAEVTKPGASVRVSCKFSAYTLSALSIHWVRQAPGKGLEWMGAFDPEDGEPIYSQHFQGRVTMTEDTSTQTAYMELNSLRSEDTAVYYCSSVGPAGWFDPWGQGTLVTVSS
# VL: DIRLTQSPSSLSASVGDRVSITCRASQSISSYLHWYQQKPGKAPKLLIYAASSLQSGVPSRFSGSGSGSDFTLTISSLQPEDFATYYCHQSYIPPFTFGPGTKLEIK
# notes: IgG; also called Antibody Number 202
# B12: ADI-15622 (antibody, V domains shown)
# VH: QVQLQESGGGLVQPGGSLRLSCSASGFTFSNYGMSWVRQAPGKGLEWVSGIGVSDGSTHYADSVKGRFIISRDNSKNMLSLQMSSLGVDDTAVYYCARIVIVGVLRFQEWLSSDGMDVWGQGTTVTVSS
# VL: DIVMTQTPSSVSASVGDRVTITCRASQAISGGLAWYQQKAGKAPKLLIYAASNLPSGVPSRFSGSGSGTDFTLTISSLQPEDFATYYCQQANSFPFTFGQGTRLEIK
# notes: IgG; also called Antibody Number 187
# B13: ADI-15574 (antibody, V domains shown)
# VH: QVQLVQSGGGLVKPGGSLRLSCAASGFTISGYNMFWVRQPPGKGLEWVSSITAGSSYLNYADSVKGRFIVSRDNAKNSLYLQMNSLRAEDTAVYFCARAPLLPAMMDLWGQGTTVTVSS
# VL: QSVLTQPPSVSGAPGQRVTISCTGSSSNIGAGYDVHWYQQLPGTAPKLLIYTNNNRPSGVPDRFSGSKSGTSASLAITGLQAEDEADYYCQSYDRSLNGYVFGTGTKLTVL
# notes: IgG; also called Antibody Number 144
# B14: ADI-15624 (antibody, V domains shown)
# VH: QVQLVQSGGGLVKAGGSLRLSCAASGFTISGFYMTWIRQAPGKGLEWVSSISGSSSYTNYADSVKGRFTISRDNAKNSLYLHMNSLRAEDTAVYYCARIRPDDSSGYPDYWGQGTLVTVSS
# VL: B13 VL with Y38C, T52G, R95S, N98S, Y100F, L108V
# notes: IgG; also called Antibody Number 189
# B15: ADI-15635 (antibody, V domains shown)
# VH: B13 VH with Q1E, V5L, Q6E
# VL: B13 VL with L108V
# notes: IgG; also called Antibody Number 200
# B16: ADI-15648 (antibody, V domains shown)
# VH: B13 VH with Q1E, Q6E
# VL: B13 VL with L4V, K107T, L108V
# notes: IgG; also called Antibody Number 212
# B17: ADI-15621 (antibody, V domains shown)
# VH: QVQLVQSGPEMKKPGSSVKVSCKPSGGTFSSYSVSWVRQAPGQGLEWMGGIIPIFGSSDYAQKFQGRLTITEDESTKTSYMQLNNLTSDDTAIYFCARDNYYVWTGHYPEFDFWGQGTLVTVSS
# VL: ETTLTQSPGTLSLSLGETATLSCRASQSVRSDYLAWYQQKPGQAPRLLISGASNRATAIPERFTGSGSGTDFTLTISSLEPADFAVYYCQQYGSTPITFGQGTRLEIK
# notes: IgG; also called Antibody Number 186
# B18: ADI-15607 (antibody, V domains shown)
# VH: QVQLVQSGGGLVQPGGSLRLSCAASRFTFSSYAMSWVRQAPGKGLEWVSTISGSGISTYYADSVKGRFTISRDNSKNTLYLQMNSLSAEDTAVYYCAKELREYYYDSSGFDYWGQGTLVTVSS
# VL: QPVLTQSRSVSGSPEQSVTISCTGTSSDVGGYNYVSWYQQHPGKAPKLMIYDVSKRPSGVPDRFSGSKSGNTASLTISGLQAEDESDYYCCSYAGTYTYVFGTGTKVTVL
# B19: ADI-15620 (antibody, V domains shown)
# VH: QVQLVQSGAEVKKPGASVKVSCKASGYTFTSYDINWVRQATGHGLEWMGWMSPNSGYTGYAQKFQGRVTMSRNTSTGTAYMELSSLRSEDTAVYYCAREARDLRVGATNFDYWGQGTLVTVSS
# VL: QPVLTQPPSVSVSPGQTASITCSGDKLGDKYISWYQQRPGQSPVMVIYQDSKGPSGIPERFSGSNSGNTATLTISGTQAMDEADYYCQAWDSSIDVVFGGGTKLTVL
# notes: IgG
# Tests used:
# [1] = target: T1, prefusion-stabilized RSV F ectodomain (DS-Cav1), subtype B (respiratory syncytial virus subtype B); test: BLI, IgG on sensor
# T1 construct: extracellular domain; also called Prefusion subtype B
# Procedure: IgG binding to DS-Cav1 and FA FP was determined by BLI measurements using a FortéBio Octet HTX instrument (Pall Life Sciences). […] Data was analyzed using the ForteBio Data Analysis Software 7. The data was fit to a 1:1 binding model to calculate an association and dissociation rate, and KD was calculated using the ratio kd/kₐ.
# [2] = target: RSV F protein of subtype B strain 18537, on virus (respiratory syncytial virus subtype B …, UniProt P13843 26-574); test: cell-based or functional assay
# [3] = target: RSV F protein of subtype A strain A2, on virus (respiratory syncytial virus subtype A …, UniProt P03420 26-574); test: cell-based or functional assay
Binder,Kd [1] [nM],Neut IC50 (ug/ml) subtype B [2] [µg/mL],Neut IC50 (ug/ml) subtype A [3] [µg/mL]
B1,1.74,5.58,4.52
B2,0.552,0.207,0.099
B3,6.09,1.79,0.163
B4,11.6,1.68,0.977
B5,–,0.17,0.02
B6,0.535,–,0.003
B7,0.61,0.028,0.041
B8,0.98,0.006,0.008
B9,0.94,–,–
B10,2.61,1.2,0.239
B11,6.13,1.05,0.357
B12,1.51,1.37,0.544
B13,0.46,0.226,0.176
B14,0.407,0.033,0.051
B15,0.431,0.226,0.115
B16,0.438,0.145,0.064
B17,0.555,0.021,0.018
B18,–,> 10,> 10
B19,1.4,0.053,0.077
